167 variants from the RNAGym collection of RNA variant scans (doi:10.7554/elife.80360) can be followed below.

Sequences and labels used below:
B1: CPEB3 Ribozyme (parent)
chain: GGGGGCCACAGCAGAAGCGUUCACGUCGCGGCCCCUGUCAGAUUCUGGUGAAUCUGCGAAUUCUGCUGU

In this series the parent is B1. Put plainly: self-cleavage, relative activity (ratio to wild type); higher = more cleavage; co-transcriptional.
Take A16C G28C: the self-cleavage came out at 0.133.

On to A16C G28A, for which the self-cleavage turned out to be 0.103.

Take A15G G48C: the self-cleavage came to 1.

A15G G48U: the self-cleavage amounted to 0.989.

Take A15G G48A: the self-cleavage came out at 0.966.

In the case of A15G U38G, the self-cleavage worked out at 0.157.

Consider A15G U38C, for which the self-cleavage is 0.97.

Regarding A15G G28A, the self-cleavage came out at 0.179.

As to A15G G28U, the self-cleavage came out at 0.141.

Turning to A15C U21A, the self-cleavage worked out at 0.791.

On to A15C U21C, for which the self-cleavage was 0.51.

A15U C29G: the self-cleavage stood at 0.169.

On to A15U C29A, for which the self-cleavage is 0.245.

Consider A16C A59G, for which the self-cleavage amounted to 0.287.

Take A15U A16U: the self-cleavage is 0.798.

As for A15U A16C, the self-cleavage worked out at 0.135.

Take A15U G50C: the self-cleavage was found to be 0.795.

In the case of A15U G50U, the self-cleavage worked out at 0.858.

On to A15C U38A, for which the self-cleavage is 0.595.

Consider A15C U38G, for which the self-cleavage came out at 0.292.

With A15C U38C, the self-cleavage amounted to 0.571.

For A15G A60C, the self-cleavage is 0.43.

In the case of A15G A60G, the self-cleavage was 0.821.

Consider A15U A59G, for which the self-cleavage worked out at 0.856.

A15U A59U: the self-cleavage came to 0.331.

A15U A59C: the self-cleavage is 0.42.

As for A16C G47C, the self-cleavage is 0.368.

For the variant A16C G47A, the self-cleavage worked out at 0.303.

As for A16C C32G, the self-cleavage came to 0.136.

For the variant A16C C32U, the self-cleavage amounted to 0.299.

Turning to A15G G25C, the self-cleavage was determined as 0.133.

A15G G25U: the self-cleavage was 0.148.

Turning to A15G G25A, the self-cleavage was 0.127.

For the variant A15G U61G, the self-cleavage came out at 0.822.

Regarding A15G U61C, the self-cleavage worked out at 0.892.

A15G U61A: the self-cleavage stood at 0.982.

As to A15G U49C, the self-cleavage was 0.968.

In the case of A15G U49A, the self-cleavage turned out to be 0.986.

A15G U49G: the self-cleavage stood at 0.95.

As for A15U C34G, the self-cleavage was determined as 0.372.

For the variant A15U C34A, the self-cleavage was found to be 0.513.

Take A15U C34U: the self-cleavage is 0.891.

For the variant A15U U62C, the self-cleavage was determined as 0.946.

As to A15U U62G, the self-cleavage amounted to 0.991.

Take A15C U36A: the self-cleavage is 0.288.

As to A15C U36C, the self-cleavage was found to be 0.487.

As to A15C U36G, the self-cleavage amounted to 0.214.

A15G U69A: the self-cleavage came to 1.04.

On to A15G U69C, for which the self-cleavage turned out to be 1.05.

Consider A15G U69G, for which the self-cleavage turned out to be 1.05.

Regarding A16C C27A, the self-cleavage came to 0.114.

On to A16C C27U, for which the self-cleavage is 0.15.

On to A16C C27G, for which the self-cleavage worked out at 0.122.

In the case of A15U U38A, the self-cleavage is 0.548.

Regarding A15U U38G, the self-cleavage turned out to be 0.178.

Turning to A15G C54A, the self-cleavage worked out at 0.914.

For A15G C54U, the self-cleavage amounted to 1.04.

Consider A15G C54G, for which the self-cleavage stood at 0.886.

For A15G A51C, the self-cleavage amounted to 0.993.

As for A15G A16U, the self-cleavage stood at 0.691.

With A15G A16G, the self-cleavage was 0.93.

Turning to A15U A40C, the self-cleavage turned out to be 0.287.

Consider A15U A40G, for which the self-cleavage was 0.697.

As for A15C U69C, the self-cleavage was 0.978.

In the case of A15G G65C, the self-cleavage came to 0.825.

On to A15G G65U, for which the self-cleavage stood at 0.784.

Turning to A15U A52C, the self-cleavage turned out to be 0.889.

On to A15U A52U, for which the self-cleavage is 0.804.

In the case of A15U C63U, the self-cleavage is 0.794.

For A15U C63A, the self-cleavage was determined as 0.832.

Turning to A16C G17A, the self-cleavage turned out to be 0.144.

On to A16C G17C, for which the self-cleavage amounted to 0.0992.

As to A16C G17U, the self-cleavage is 0.127.

Turning to A15C U26C, the self-cleavage turned out to be 0.73.

Regarding A15C U26A, the self-cleavage worked out at 0.48.

Turning to A16C C29A, the self-cleavage is 0.186.

Consider A16C C29U, for which the self-cleavage amounted to 0.192.

Consider A16C C29G, for which the self-cleavage turned out to be 0.165.

In the case of A15U G58C, the self-cleavage was found to be 0.821.

For the variant A15U G58A, the self-cleavage was 0.754.

For the variant A15U G58U, the self-cleavage came out at 0.963.

On to A15G U46C, for which the self-cleavage worked out at 0.974.

As for A16C C33G, the self-cleavage amounted to 0.0588.

As for A16C C33A, the self-cleavage worked out at 0.213.

Regarding A15C U67G, the self-cleavage was determined as 0.934.

In the case of A15C U61A, the self-cleavage was 0.468.

Consider A15C U61G, for which the self-cleavage amounted to 0.723.

Turning to A15C U61C, the self-cleavage amounted to 0.356.

Turning to A15U, the self-cleavage is 0.928.

Take A15G: the self-cleavage was found to be 1.

With A15C U43C, the self-cleavage was 0.754.

Take A15C U44C: the self-cleavage turned out to be 0.659.

For the variant A15C U44G, the self-cleavage is 0.739.

Turning to A15C U44A, the self-cleavage was determined as 0.662.

For the variant A16C G30C, the self-cleavage was determined as 0.191.

On to A15U G19U, for which the self-cleavage was determined as 0.127.

As for A15U G19C, the self-cleavage was 0.132.

As to A15U G19A, the self-cleavage came to 0.13.

Consider A16C C22A, for which the self-cleavage worked out at 0.105.

Regarding A16C C22G, the self-cleavage is 0.0967.

In the case of A16C C18G, the self-cleavage was 0.114.

Consider A16C C18A, for which the self-cleavage stood at 0.129.

On to A16C G48A, for which the self-cleavage is 0.328.

As for A15U G28U, the self-cleavage amounted to 0.167.

As to A15U G28C, the self-cleavage was 0.206.

Regarding A15U U44A, the self-cleavage stood at 0.705.

For A15U C24U, the self-cleavage came to 0.28.

With A15U C24G, the self-cleavage came out at 0.214.

On to A15U U46C, for which the self-cleavage is 0.848.

As to A15U U69G, the self-cleavage stood at 0.998.

As for A15U U43A, the self-cleavage is 0.479.

On to A15U U43C, for which the self-cleavage was 0.731.

As for A15U U43G, the self-cleavage was determined as 0.429.

For A15G U21G, the self-cleavage was 0.578.

For A15G U21A, the self-cleavage is 0.956.

Turning to A16C C57U, the self-cleavage was determined as 0.107.

Take A15G A59U: the self-cleavage worked out at 0.785.

As for A15G A59G, the self-cleavage came to 0.994.

Consider A15U C27A, for which the self-cleavage is 0.0897.

Consider A15U C27G, for which the self-cleavage was 0.168.

As to A15G C27U, the self-cleavage was 0.204.

As for A15G C27G, the self-cleavage turned out to be 0.316.

On to A15G C27A, for which the self-cleavage is 0.645.

Turning to A15U G31C, the self-cleavage amounted to 0.183.

Turning to A15U G31A, the self-cleavage was 0.248.

With A15U G31U, the self-cleavage came to 0.205.

Turning to A16C G41A, the self-cleavage stood at 0.129.

For A16C G41U, the self-cleavage was 0.142.

For the variant A15G G17U, the self-cleavage stood at 0.424.

Turning to A15G G17A, the self-cleavage was found to be 0.312.

Take A15G C24A: the self-cleavage stood at 0.691.

Take A15G C22U: the self-cleavage turned out to be 0.287.

As to A15G C35A, the self-cleavage amounted to 0.273.

For A15G C35G, the self-cleavage was 0.457.

Turning to A15G C35U, the self-cleavage was 0.96.

As to A15U U61G, the self-cleavage was 0.854.

On to A15U U61C, for which the self-cleavage worked out at 0.686.

Take A15U U64C: the self-cleavage is 0.654.

In the case of A15U U64G, the self-cleavage came out at 0.549.

In the case of A15U U64A, the self-cleavage was 0.683.

Consider A15G C18U, for which the self-cleavage came out at 0.792.

Take A15G C18G: the self-cleavage was 0.198.

For the variant A15G C18A, the self-cleavage amounted to 0.192.

On to A15C U55C, for which the self-cleavage is 0.545.

Regarding A15C U55A, the self-cleavage turned out to be 0.435.

Regarding A15G G30A, the self-cleavage is 0.917.

As to A15G G30U, the self-cleavage is 0.342.

Regarding A15U U36G, the self-cleavage turned out to be 0.181.

With A15U U36A, the self-cleavage was 0.194.

A15C G68C: the self-cleavage turned out to be 0.917.

Turning to A15C G68U, the self-cleavage turned out to be 0.969.

With A15U A42C, the self-cleavage worked out at 0.594.

Take A15U A42U: the self-cleavage turned out to be 0.613.

On to A15G C66A, for which the self-cleavage came out at 0.828.

In the case of A15G C66U, the self-cleavage was determined as 0.964.

Regarding A15C U20C, the self-cleavage amounted to 0.284.

Consider A15C U20G, for which the self-cleavage amounted to 0.139.

In the case of A15C U20A, the self-cleavage is 0.125.

With A15U C35U, the self-cleavage was 0.776.

As to A16C C34G, the self-cleavage amounted to 0.168.

Consider A16C C34U, for which the self-cleavage is 0.353.

A16C A23G: the self-cleavage turned out to be 0.0786.

With A16C A23U, the self-cleavage is 0.549.

Regarding A16C A23C, the self-cleavage was determined as 0.277.

Take A16C C63A: the self-cleavage stood at 0.173.

Regarding A16C C63U, the self-cleavage was 0.19.

Regarding A16C C63G, the self-cleavage was 0.12.
